Source: PMC13189263

Key:
[1] = target: N6-I3 Ab (human); assay: SPR
[2] = target: N6-I2 Ab (human); assay: SPR

Substance: BG505 MD39.3 SOSIP trimer
- Kd [1]: 3 nM
- Kd [2]: 5.7 nM
